# Source: patent US20050020492A1 (MERCK, published 2005)
# Read-outs that look alike come from different tables or passages of the source. Positions of bridges follow the written chain, without caps; N, C: chain ends. Non-standard residues stand in square brackets, D forms with d. Cha = N[C@@H](CC1CCCCC1)C(=O)O
# Assays:
# human MCH-1R [1] = molecular target: T1, human MCH-1R (human, UniProt Q99705 1-353); experiment: cell-based or functional assay
# human MCH-2R [2] = molecular target: T2, human MCH-2R (human, UniProt Q969V1 1-340); experiment: cell-based or functional assay
# human MCH-2R [3] = molecular target: T2, human MCH-2R; experiment: SPA, displacement of [125I]-[Phe13,Tyr19]-hMCH, MCH-2R membranes
# Description: (§1) After equilibrating at room temperature for 3 hours, the plates were read in a TopCount (Packard, Meriden, Conn.). IC₅₀ calculations were performed using Prism 3.0 (GraphPad. Software, San Diego, Calif.). The IC₅₀ values were measured in three different experiments.
# human MCH-1R [4] = molecular target: T1, human MCH-1R; experiment: SPA, displacement of [125I]-[Phe13,Tyr19]-hMCH, CHO/MCH-1R membranes
# Description: as §1
# human MCH-1R [5] = molecular target: T1, human MCH-1R; experiment: ratio of the two SPA IC50s
# human MCH-2R [6] = molecular target: T2, human MCH-2R; experiment: SPA, displacement of [125I]-[Phe13,Tyr19]-hMCH, MCH-2R membranes; remark: listed apart in the source
# Description: as §1
# human MCH-2R [7] = molecular target: T2, human MCH-2R; experiment: cell-based or functional assay; remark: listed apart in the source
# human MCH-1R [8] = molecular target: T1, human MCH-1R; experiment: cell-based or functional assay; remark: listed apart in the source
# T2 sequence (Q969V1 whole entry): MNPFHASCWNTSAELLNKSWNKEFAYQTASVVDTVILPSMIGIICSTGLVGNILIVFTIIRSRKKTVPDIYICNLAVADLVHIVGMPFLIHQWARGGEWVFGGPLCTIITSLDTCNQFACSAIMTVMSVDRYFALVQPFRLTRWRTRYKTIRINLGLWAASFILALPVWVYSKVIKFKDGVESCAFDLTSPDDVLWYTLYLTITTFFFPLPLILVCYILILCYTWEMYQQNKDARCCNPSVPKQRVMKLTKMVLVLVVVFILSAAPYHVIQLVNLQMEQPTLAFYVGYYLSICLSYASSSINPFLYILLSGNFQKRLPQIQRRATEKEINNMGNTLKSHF
# T1 sequence (Q99705 whole entry): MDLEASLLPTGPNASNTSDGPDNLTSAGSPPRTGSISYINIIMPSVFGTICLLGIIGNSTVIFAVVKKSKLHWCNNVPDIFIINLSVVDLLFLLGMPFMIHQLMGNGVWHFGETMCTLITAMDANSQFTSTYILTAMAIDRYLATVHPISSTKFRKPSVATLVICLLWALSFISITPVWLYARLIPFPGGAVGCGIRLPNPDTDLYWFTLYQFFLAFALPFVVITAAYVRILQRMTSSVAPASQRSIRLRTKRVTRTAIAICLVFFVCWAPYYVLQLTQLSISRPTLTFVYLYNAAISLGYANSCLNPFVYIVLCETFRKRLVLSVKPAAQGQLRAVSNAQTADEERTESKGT
Binder,"Activation %, aequorin bioluminescence (human MCH-1R [1]) [%]","Activation %, aequorin bioluminescence (human MCH-2R [2]) [%]","EC50, aequorin bioluminescence (human MCH-1R [1]) [nM]",IC50 (human MCH-2R [3]) [nM],IC50 (human MCH-1R [4]) [nM],other results
XCMLGRVYRPC (N-terminal acetyl; D-Pro at position 6; C-terminal amide; disulfide cycle) [SEQ. ID. NO. 8 (Ac-D-Pro^6 analog of Ac-hMCH(6-16)-NH2)],120,,,,,
"XCMLGRVYRPC (HELM PEPTIDE1{[ac].[dA].C.M.L.G.R.V.Y.R.P.C.[am]}$PEPTIDE1,PEPTIDE1,3:R3-12:R3$$$V2.0; SMILES CSCC[C@@H]1NC(=O)[C@@H](NC(=O)[C@@H](C)NC(C)=O)CSSC[C@@H](C(N)=O)NC(=O)[C@@H]2CCCN2C(=O)[C@H](CCCNC(=N)N)NC(=O)[C@H](Cc2ccc(O)cc2)NC(=O)[C@H](C(C)C)NC(=O)[C@H](CCCNC(=N)N)NC(=O)CNC(=O)[C@H](CC(C)C)NC1=O) [SEQ. ID. NO. 6 (Ac-D-Ala^6 analog of Ac-hMCH(6-16)-NH2)]",109,51,160,2700,0.77,"EC50, aequorin bioluminescence (human MCH-2R [2]): 4900 nM"
"XCMLGRVYRPC (HELM PEPTIDE1{[ac].[dF].C.M.L.G.R.V.Y.R.P.C.[am]}$PEPTIDE1,PEPTIDE1,3:R3-12:R3$$$V2.0; SMILES CSCC[C@@H]1NC(=O)[C@@H](NC(=O)[C@@H](Cc2ccccc2)NC(C)=O)CSSC[C@@H](C(N)=O)NC(=O)[C@@H]2CCCN2C(=O)[C@H](CCCNC(=N)N)NC(=O)[C@H](Cc2ccc(O)cc2)NC(=O)[C@H](C(C)C)NC(=O)[C@H](CCCNC(=N)N)NC(=O)CNC(=O)[C@H](CC(C)C)NC1=O) [SEQ. ID. NO. 9 (Ac-D-Phe^6 analog of Ac-hMCH(6-16)-NH2)]",117,,66,1250,0.9,"EC50, aequorin bioluminescence (human MCH-2R [2]): 510 nM"
XCMLGRVYRPC (N-terminal acetyl; D-Nle (D-norleucine) at position 6; C-terminal amide; disulfide cycle) [SEQ. ID. NO. 7 (Ac-D-Nle^6 analog of Ac-hMCH(6-16)-NH2)],115,69,,1460,,
XCMLGRVYRPC (N-terminal acetyl; D-Asn at position 6; C-terminal amide; disulfide cycle) [SEQ. ID. NO. 10 (Ac-D-Asn^6 analog of Ac-hMCH(6-16)-NH2)],113,42,260,,,
XCMLGRVYRPC (N-terminal acetyl; D-Arg at position 6; C-terminal amide; disulfide cycle) [SEQ. ID. NO. 5 (Ac-D-Arg^6 analog of Ac-hMCH(6-16)-NH2)],97,,,,,

# Further lines, with some results ahead:
"Activation %, aequorin bioluminescence (human MCH-1R [1]) [%]","Activation %, aequorin bioluminescence (human MCH-2R [2]) [%]","EC50, aequorin bioluminescence (human MCH-1R [1]) [nM]",IC50 (human MCH-2R [3]) [nM],IC50 (human MCH-1R [4]) [nM],Binder,other results
114,39,160,,,XCMLGRVYRPC (N-terminal acetyl; D-Ser at position 6; C-terminal amide; disulfide cycle) [SEQ. ID. NO. 11 (Ac-D-Ser^6 analog of Ac-hMCH(6-16)-NH2)],
130,55,94,1030,0.3,"XCMLGRVYRPC (HELM PEPTIDE1{[ac].[dK].C.M.L.G.R.V.Y.R.P.C.[am]}$PEPTIDE1,PEPTIDE1,3:R3-12:R3$$$V2.0; SMILES CSCC[C@@H]1NC(=O)[C@@H](NC(=O)[C@@H](CCCCN)NC(C)=O)CSSC[C@@H](C(N)=O)NC(=O)[C@@H]2CCCN2C(=O)[C@H](CCCNC(=N)N)NC(=O)[C@H](Cc2ccc(O)cc2)NC(=O)[C@H](C(C)C)NC(=O)[C@H](CCCNC(=N)N)NC(=O)CNC(=O)[C@H](CC(C)C)NC1=O) [SEQ. ID. NO. 13 (Ac-D-Lys^6 analog of Ac-hMCH(6-16)-NH2)]","EC50, aequorin bioluminescence (human MCH-2R [2]): 2100 nM"
,,,,5,Ac-RCML[Cha]RVYRPC-NH2 (disulfide 2-11) [SEQ. ID. NO. 19 (Cha^10 analog of Ac-hMCH(6-16)-NH2)],"Selectivity 2/1 (MCH-2R/MCH-1R IC50 ratio) (human MCH-1R [5]): 11 ratio; IC50 (human MCH-2R [6]): 55 nM; Activation %, aequorin bioluminescence (human MCH-2R [7]): 74%; EC50, aequorin bioluminescence (human MCH-2R [7]): 300 nM; Activation %, aequorin bioluminescence (human MCH-1R [8]): 76%; EC50, aequorin bioluminescence (human MCH-1R [8]): 1200 nM; Selectivity 2/1 (MCH-2R/MCH-1R EC50 activity ratio) (human MCH-1R [8]): 0.25 ratio"
,,,,3.1,"RCMLXRVYRPC (HELM PEPTIDE1{[ac].R.C.M.L.[Cit].R.V.Y.R.P.C.[am]}$PEPTIDE1,PEPTIDE1,3:R3-12:R3$$$V2.0; SMILES CSCC[C@@H]1NC(=O)[C@@H](NC(=O)[C@H](CCCNC(=N)N)NC(C)=O)CSSC[C@@H](C(N)=O)NC(=O)[C@@H]2CCCN2C(=O)[C@H](CCCNC(=N)N)NC(=O)[C@H](Cc2ccc(O)cc2)NC(=O)[C@H](C(C)C)NC(=O)[C@H](CCCNC(=N)N)NC(=O)[C@H](CCCNC(N)=O)NC(=O)[C@H](CC(C)C)NC1=O, also called Cit^10 peptide) [SEQ. ID. NO. 27 (Cit^10 analog of Ac-hMCH(6-16)-NH2)]","Selectivity 2/1 (MCH-2R/MCH-1R IC50 ratio) (human MCH-1R [5]): 42 ratio; IC50 (human MCH-2R [6]): 130 nM; Activation %, aequorin bioluminescence (human MCH-2R [7]): 68%; EC50, aequorin bioluminescence (human MCH-2R [7]): 310 nM; Activation %, aequorin bioluminescence (human MCH-1R [8]): 91%; EC50, aequorin bioluminescence (human MCH-1R [8]): 920 nM; Selectivity 2/1 (MCH-2R/MCH-1R EC50 activity ratio) (human MCH-1R [8]): 0.3 ratio"
100,20,,,,XCMLGRVYRPC (not fully specified; N-terminal acetyl; D-Glu at position 6; C-terminal amide; disulfide cycle) [SEQ. ID. NO. 12 (Ac-D-Glu^6 analog of Ac-hMCH(6-16)-NH2)],
